Test results published in paper PMC11255602 (Protein Science : A Publication of the Protein Society, 2024).

B1: tetramer interface mutant (TIM) PRMT1 Y262A/Y304A/L341A (enzyme, human (rat sequence humanized by H161Y), UniProt Q99873-3 1-353, looked up)
chain: MAAAEAANCIMEVSCGQAESSEKPNAEDMTSKDYYFDSYAHFGIHEEMLKDEVRTLTYRNSMFHNRHLFKDKVVLDVGSGTGILCMFAAKAGARKVIGIECSSISDYAVKIVKANKLDHVVTIIKGKVEEVELPVEKVDIIISEWMGYCLFYESMLNTVLYARDKWLAPDGLIFPDRATLYVTAIEDRQYKDYKIHWWENVYGFDMSCIKDVAIKEPLVDVVDPKQLVTNACLIKEVDIYTVKVEDLTFTSPFCLQVKRNDAVHALVAYFNIEFTRCHKRTGFSTSPESPYTHWKQTVFYMEDALTVKTGEEIFGTIGMRPNAKNNRDLDFTIDLDFKGQACELSCSTDYRMR
B2: tetramer interface mutant 2 (TIM2) PRMT1 H64A/R66A/H278A (enzyme, human (rat sequence humanized by H161Y), UniProt Q99873-3 1-353, looked up)
chain: MAAAEAANCIMEVSCGQAESSEKPNAEDMTSKDYYFDSYAHFGIHEEMLKDEVRTLTYRNSMFANAHLFKDKVVLDVGSGTGILCMFAAKAGARKVIGIECSSISDYAVKIVKANKLDHVVTIIKGKVEEVELPVEKVDIIISEWMGYCLFYESMLNTVLYARDKWLAPDGLIFPDRATLYVTAIEDRQYKDYKIHWWENVYGFDMSCIKDVAIKEPLVDVVDPKQLVTNACLIKEVDIYTVKVEDLTFTSPFCLQVKRNDYVHALVAYFNIEFTRCAKRTGFSTSPESPYTHWKQTVFYMEDYLTVKTGEEIFGTIGMRPNAKNNRDLDFTIDLDFKGQLCELSCSTDYRMR
B3: H293A/E153A (HE) PRMT1 (enzyme, human (rat sequence humanized by H161Y), UniProt Q99873-3 1-353, looked up)
chain: MAAAEAANCIMEVSCGQAESSEKPNAEDMTSKDYYFDSYAHFGIHEEMLKDEVRTLTYRNSMFHNRHLFKDKVVLDVGSGTGILCMFAAKAGARKVIGIECSSISDYAVKIVKANKLDHVVTIIKGKVEEVELPVEKVDIIISEWMGYCLFYASMLNTVLYARDKWLAPDGLIFPDRATLYVTAIEDRQYKDYKIHWWENVYGFDMSCIKDVAIKEPLVDVVDPKQLVTNACLIKEVDIYTVKVEDLTFTSPFCLQVKRNDYVHALVAYFNIEFTRCHKRTGFSTSPESPYTAWKQTVFYMEDYLTVKTGEEIFGTIGMRPNAKNNRDLDFTIDLDFKGQLCELSCSTDYRMR

Target: the molecule itself
Test: native gel or EMSA

Protein | stoichiometry N
B1 | 2
B2 | 2
B3 | 4
